{"source": "patent JP2012233002A", "key": {"[1]": {"molecular_target": "凝集型Aβ1−42 (aggregated synthetic Aβ1-42) (human) (UniProt P05067)", "assay": "ELISA on aggregated synthetic Aβ1-42"}, "[2]": {"molecular_target": "可溶性Aβ1−42 (soluble synthetic Aβ1-42 sonicated in DMSO, 125I-labelled) (human) (UniProt P05067)", "assay": "capture radioimmunoassay, 50,000 CPM 125I-Aβ1-42 (or 125I-Aβ1-40)"}, "[3]": {"molecular_target": "Aβ (β-amyloid peptide; length and physical form not specified in the assay) (human) (UniProt P05067)", "assay": "BIAcore (SPR)"}, "[4]": {"molecular_target": "Aβ (β-amyloid peptide; length and physical form not specified in the assay) (human) (UniProt P05067)", "assay": "Biacore (SPR)"}}}
{"substance": "マウス10D5 (mouse monoclonal antibody 10D5)", "values": [{"measurement": "affinity (親和性)", "setting": "[1]", "result": "< 1", "unit": "nM"}, {"measurement": "percent of radioactive counts bound at 10 μg/ml antibody", "setting": "[2]", "result": 2, "unit": "%"}]}
{"substance": "マウス3D6 (mouse monoclonal antibody 3D6)", "values": [{"measurement": "Kd", "setting": "[3]", "result": 0.00088, "unit": "µM"}]}
{"substance": "組換えマウス12A11Cγ2a(アイソタイプスイッチ12A11) (antibody)", "values": [{"measurement": "Kd", "setting": "[4]", "result": 0.038, "unit": "µM"}]}
